One experiment addresses Kv1.6 channel. As to the kind of experiment: cell-based or functional assay.
The target in experiment [1] is α3β4 subtype of rat neuronal nAChR (rat), P04757. The experiment is described as follows: cell-based or functional assay.
Sequence of α3β4 subtype of rat neuronal nAChR (rat), P04757 (P04757 26-499, chain 1 of 2): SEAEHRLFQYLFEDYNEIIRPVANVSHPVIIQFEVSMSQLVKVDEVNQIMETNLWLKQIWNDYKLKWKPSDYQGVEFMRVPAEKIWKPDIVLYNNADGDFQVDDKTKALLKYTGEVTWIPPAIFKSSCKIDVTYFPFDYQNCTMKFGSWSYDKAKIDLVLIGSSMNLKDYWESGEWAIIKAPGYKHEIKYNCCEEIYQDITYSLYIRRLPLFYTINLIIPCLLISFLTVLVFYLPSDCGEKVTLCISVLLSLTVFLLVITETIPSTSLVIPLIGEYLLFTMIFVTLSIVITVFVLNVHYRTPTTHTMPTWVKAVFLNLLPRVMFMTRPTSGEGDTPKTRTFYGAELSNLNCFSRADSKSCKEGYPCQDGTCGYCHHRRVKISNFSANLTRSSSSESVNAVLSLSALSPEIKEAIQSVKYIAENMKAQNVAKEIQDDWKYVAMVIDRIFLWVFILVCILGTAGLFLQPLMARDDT
Sequence of α3β4 subtype of rat neuronal nAChR (rat), P04757 (P12392 21-495, chain 2 of 2, further chain): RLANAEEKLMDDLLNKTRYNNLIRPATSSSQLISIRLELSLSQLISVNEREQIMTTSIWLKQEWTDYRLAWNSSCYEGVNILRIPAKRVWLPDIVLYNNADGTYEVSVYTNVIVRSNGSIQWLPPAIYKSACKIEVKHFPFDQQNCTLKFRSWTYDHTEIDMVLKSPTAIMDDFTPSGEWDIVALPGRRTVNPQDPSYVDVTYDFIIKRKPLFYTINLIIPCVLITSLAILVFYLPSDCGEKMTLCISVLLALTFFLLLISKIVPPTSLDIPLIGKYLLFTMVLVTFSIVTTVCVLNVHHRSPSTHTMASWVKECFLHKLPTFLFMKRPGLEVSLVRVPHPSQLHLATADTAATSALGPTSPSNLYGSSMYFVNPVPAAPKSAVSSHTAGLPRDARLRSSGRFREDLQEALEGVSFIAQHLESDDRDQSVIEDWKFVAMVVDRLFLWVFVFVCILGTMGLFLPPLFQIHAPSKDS

As for FPRPRICNLACRAGIGHKYPFCHCR (modifications not checked) [conotoxin pl14a], in the experiment with Kv1.6 channel, the IC50, µM (vitelline membrane retained) stood at 3.12 µM and the IC50 for the block of Kv1.6 currents (vitelline membrane removed) amounted to 1.59 µM. In addition, in experiment [1], the IC50 in α3β4 (nM), block of ACh-elicited current in oocytes amounted to 8700 nM.

For the origin of these results see patent US20110064668A1.
